Common to all, as to experiment: native MS
Data set [1] deals with AmtB from Escherichia coli (Escherichia coli) (UniProt P69681).
The target in data set [2] is AqpZ with C-terminal fusion to the green fluorescent protein (Escherichia coli) (UniProt P60844).
Data set [3] concerns the molecule itself.
Data set [4] deals with the molecule itself. This is another data set of the same source.

The term stoichiometry N denotes the number of molecules, sites or subunits per partner or assembly. Take “AmtB from Escherichia coli (from UniProt P69681 23-428) (natural protein)”: the stoichiometry N in data set [1] turned out to be 3.
Regarding “AqpZ with C-terminal fusion to the green fluorescent protein (from UniProt P60844 1-231) (natural protein)”, the stoichiometry N in data set [2] came out at 4.

B1: TRAAK (K2p4.1b), residues 1-290 with N104Q and N108Q (domain or fragment)
chain: MTTAPQEPPARPLQAGSGAGPAPGRAMRSTTLLALLALVLLYLVSGALVFRALEQPHEQQAQRELGEVREKFLRAHPCVSDQELGLLIKEVADALGGGADPETQSTSQSSHSAWDLGSAFFFSGTIITTIGYGNVALRTDAGRLFCIFYALVGIPLFGILLAGVGDRLGSSLRHGIGHIEAIFLKWHVPPELVRVLSAMLFLLIGCLLFVLTPTFVFCYMEDWSKLEAIYFVIVTLTTVGFGDYVAGADPRQDSPAYQPLVWFWILLGLAYFASVLTTIGNWLRVVSRRT
On to B1, for which the “stoichiometry N” value in data set [3] was determined as 2.

B2: TREK2, residues 55-335 with T58A (domain or fragment)
chain: MEGASQGGLQTVMKWKTVVAIFVVVVVYLVTGGLVFRALEQPFESSQKNTIALEKAEFLRDHVCVSPQELETLIQHALDADNAGVSPIGNSSNNSSHWDLGSAFFFAGTVITTIGYGNIAPSTEGGKIFCILYAIFGIPLFGFLLAGIGDQLGTIFGKSIARVEKVFRKKQVSQTKIRVISTILFILAGCIVFVTIPAVIFKYIEGWTALESIYFVVVTLTTVGFGDFVAGGNAGINYREWYKPLVWFWILVGLAYFAAVLSMIGDWLRVLSKKTKEEVGE
modifications: glycans, treated with EndoH to reduce the glycan heterogeneity
Regarding B2, in data set [4], the binding result is reported as “binds”.

For the origin of these results see publication PMC10718073 (Chemical Science, 2023).
